A protein production outcome set (Wang et al. 2014)

test: label from the status in PepcDB records

Protein production, failed:
MPVQENSFKSYSEVITGSIIYGTIGVFLDRVQDMSVGSVLFCRLLFGVFMIFFYLLLSGSLEQLRLRRNRKYLLLLGFLNAVTGICYLSAIRHSGISTAVLLLYTAPVYVNLLAPAILGEKGSSKSFLPLILSVLGVLLITRPGEILFNINAGSEFIKGLLYGILSGISFGTTIILIRYLRHDYTGISQTFWLTGVSLLFMLPSALLTPASVFLKNFDTLFLFGITITFAAILYLRGISGIKAQTGSILALLEPVSGIFFDTVVLRSPFYISTLLGCVLILTAAYLVSRNGTGDQSLKTDNQPVL
MPVRVSLELLRVGHCRHCERMVRADGHWHAVEFPALSVLIRHPQRGALLYDTGYAAHFFRATDAWPERLYRLTTPVRLPAHETLGAQLSKRGVALDDIAWCLISHFHADHVGGLRDLPNARFMCSRADHQQLRSCSRVGGLRRALLPQLLPDDFDQRLQFADQAPQRALTGAWQGLGPAYDLFEDGSVLAVSLPGHVPGQMGLRVRDQHDREVLLCADAVWSSATWATLQWPAWPTRLLMHDWHAFQRTVHRLHALSHAHPELAILPSHCQPSLDRYQPEWR
MPWIQVYTPVAGSLGLSALVAAIPLVVIFVCLALFKMKAHKAGLLALASAMLIAITVWGMPAKLAGLATAQGAAFGLFPVFYIVITTIFLYNITVKGGQFEIIRASLAGVTADRRLQALLIAFCFGAFIEGAAGFGTPVAIAGATLAGLGFQPLYAAGVCLVANTAPVAFGAIGIPIVALAGVMGYGDDGMMKLSTMVGRQLPFISVIIPFYVIMIMVGWKKTIEILPAIIVCGVTFALSQWATATYLGPYLPDVTASLASIIALVLLLRVWQPKTIYTFAHEAPVTGATEHHYTTGEVFRAWSPYLALTVMVLLWGIPSIKTVLDKSTVEIEVKGLHNMIVKKVAKPEDTLTKIAAASAEIDRQLTLLSPADPKQAAIAAKLMELKAFETQLAAVEQGLVGQGAVLTDERLKACDIVSKKMAETQKLCKELVKTAAVPANQFKPLDKALADHLPLKVAAKYKFNFMSAAGTAILIAAFLSALICGVGFADTFRILGKTLYDMRFPALTVASVLGLAYVMNASGMTNCLGLIFTKTGHWFPFIAPFLGWLGVFLTGSDTSSNVLFGGLQKATAEQLGISPILTGAANTSGGVMGKMISPQSLAVATAATGMVGEEGTLFRFTLKHSIFLTILVGIIVYLQAYVLQWMIP
MPYTLQHLESEAALAASFDLMRVLRPHLTSPAAYVAQWARQTEQGYRLLAAWDAERIVGLAGYRELENLLYGRFIYVDDLVVSPDLQRSGLGARLLSAVRDEAVQRQCEHFVLDTGLHMPLAQRFYFRQGLLARGMHFTQRLE
MQAGQVATNDLTISGIVNTVPASAVFAREANPVKVLNVKNTGDETLSNISIAVYASDVSSGTVPVDTTTIASLAGDATTTVTLIDPTIRDLEGGTVTYTAVVDPDNLIAETDETNNNKSSLEHHHHHH
MQAKSEAKLAIGVIGCGNISMTYLRNAALFGGIELRACADISADMAALRAKEYGIQALGVDALLSDPEIDLVLNLTIPAAHFDISLSALSAGKHVFTEKPLATSAGDGRRLVAEAAKRGVLLGSAPDTFLGAAGRRARRLMDEGAIGRPVTGTAFMMGRGMEHWHPNPQFYYQPGGGPVFDMGPYYLTMLVNLLGPVARVMAMATRGQEERLITAEGPFKNTTFKVGTPTNVLSLLEFRSGATVTFGASWDVFKHSNHPIELHGTEGSLRLPDPDTFGGTVSLSERGADWKDFAGEGELYGARNWPYAAPDRANYRMLGVADLVRSLKTGAVPRASGNLALHVLEIMEAILHSGETKSAVAIAGDVVQPALLTEDEANSLLA
MQAQDATQLLEGVPLPLVLIGPDERIRAANAPAQRLFGAASVARHYVMAMRQPALLDAIEGAIRLDRPGRARYIITGPSREVTYRATVTPVRIHGESCALCAFEDITEQEQMGAIRRDFVANVSHELRTPLTALLGFIETLQGAARDDPAARSRFLGIMAREAGRMNRLVQDLLSLSRVESEERVRPKTPVDVTAVIGQAIAALRPMAEAAGVEIQRQGEAGPILLPGDPDQLTQVFHNLIENAVKYGASGKLVTVGISRDAEGLARLGPAVRIEVVDRGEGIDAIHLPRLTERFYRVDNHRSREKGGTGLGLAIVKHIVNRHRGRFLIESELGQGSRFIVTLPLA
MQCNICEVRCEINKHSTGRCGTYVSTGNTITQYPGMGYMGAYPISIEEVPLHHFYPSGKFLQIFSKGCNFQCPGCAARMPASSEPSTQQASLSPSEVVKRALKQECLGVVSTLNDPVANYYLFRDLAIQAQEKSLLVGCSTNCYFTSETLEEFGQLVDFVNVGIKGYSDRGYRNCGVTSSAPVFRNISRLFDMGVHVETSIAYSRGNEEDVIKVAEAVSDISPTIPLHVMRFLPFGYAPIELEPSIGEAEKICSDLRRYLDFVYLFNSPGTELLNTYCPECGRLLIEREFHRPFGSRLVKPWLSHKCSCGCSIPVQGKAPTEGFSEAGLMDSYSISQAFSMVHAVLTCLGVLDDYKLMDIWGEDKLMDVWSKVSNPKTLMQIHNMIRQPYSYLEFIKFIAEKANMPEKGEELVSFIHKRLQIVQNLSAGKSSYYVYYCMGSPFFALNAGRMENNLVTFSGGVSINKQLQKEGKLGVSVSPSFINEHNPGVIFVSGFLSRPLDEFYALCQKYGIHADAVTQHRVYEIPPSWDFGSPRWILGLMYITDKLHPGKLEVDLKKEADDFYLQFYGMRFKEARPNRSFHRPSSGIWPHTQTLYNYFEMEVPNQDSTKNFGNEITQPFNILPTCKIKLKE
MQDHIISFTAGILSVLSPCILPVIPVIFSESLIGNRKERFLFLSGFSSLFLFTIILTAIFTAAVNYYLLYLRVPASIMLIIMGLLVLSEKPLISIRTPPAENHVLMGLLTAIAWTPCYSPYLIGVIAYSAYTGIPGALVNMALYTLGLTITLIAVTLLAEPVLRRLLRGSRDIRRASGVLIVVAGIYMLYQLIPLP
MQDLIKQYNTTLRQLREAQKDAKEEDVKVLTDMISDITYSLEWMKKARRPGNRRGVERLAAYQRERACDPLLMQRYFRSMDDNLYEWDNHQQEHSIGEWDKVRLEDALSLLTEREKEVYLMSRGYCLTYREIARYLDITCSTVQSMIERAEKKIARQVNESLFCNCG
MQDSKIPPFSEAKRMKIPTPKQPLTQLPPRIGKKVSNRSKSNQVHAISHQLEMSPNSDSSPGNEYRALRRKYLLLEEDSFALERELKEAEDEVKALEDEKLELLDKLVVMEGLVDP
MQDVLVIFAFFIILLSIVIALIKDLSSWVYITILLAIASWLLLFPQILSPYVVGIDAHFEHIIAEETLRTGHWDPDLSGNIVNAALSITILTPFISIVSGIPLDWVLKIILTIYPLISIPIIWKSNIHILSFSNRESFLSLLLLIGTSSFMLISVYGRQEVGLFSGLVLLYFLHFKKSSVQLSIVLIFLVIGLIFSHYSTAIILIITYAISSLFLYLFQRDKCSMRLVLFSIVFMVFWLILIVYASMASISHSFNFIYLSILDWATENSSIVVEQQLNPTFYNIFQSLNYVINIFIIIFLVIGTSYLVYSRVVKSKLESEENKKYFIFAFLSSIYILLSVLPGFSSVYNAERIYLTTLYLFSGFSLIGFKRVFVYIVTFFTKFSPIYLKKSNKYIFVVFSFFVLVHFVLQVGILPMLYYGDTNSKYFGDISEDRHYTLEEEVYAVNWLQGINNNNRIYTDFYGRGRLPLRSYGNIPTSQIVDLKEIGPTTLNLRNIIFYQQKKELNDEVSSKNFEQIEEINNFLQKYGSTLYNSGMTEVKVINLNS
MQFLPILFVLLASGSFLSYTLSSYAIGNGTANIYHYVLNATSTGTEYNVSVFLNWSYSNLYEYVNKYDYSTFHKNFQVPDLYYIFYHSNPSTLAYILLFNNVTLTTYNLGGNQIPAIKFYNGDNYLTVSAQYGVMLQGFAKNYAGPSAGTLNVSISLNSYKNLPSFVSNANMYTLNVSFMPNPSALSYTLYLVSPEAKISGSNMYVSKEISIAYLSILSKGFTTIIIPSAYSIVRPIGEVIINQTNYYYFYLNGTLTYYGTYFTPKYYNSTTPFTIDTIGKYIVIFFPTGGNITVFLNNGNNPLYGVKVTGETGNKNTPLSLYLIIIGVVIVLVVAIIVLRFRKVF
MQFTDGGKEVELRLRLKTGEILSPKDISVDADGTSLAVKEKRNGLLITLLETNHLFEKIMPSETIWYIDEDQLVVNMKKVDGELKWPDIVESWESLTAGMMQLLKGASIYIVGDSTEINQKVSRELAVGLGYSPLDSKELLESFSKQTIDSWILAEGPDSVAEAESSVLESLSSHVRTVVSTLGGKHGAAGRADQWRHLYSGFTVWVSQTEATDEESAKEEARRSKQEREIGYSNADVVVKLQGWDPTHAKSVAQASLSALKQLIISDKGLPGNK

Protein production, not failed:
MPVNSILGVFAKSPIKPLQEHMDKVYDCASLLVPFFEATITGNWDDAVQIRKQISLAEKQGDSLKREIRLTLPSGLFMPVERTDLLELLTQQDKIANKAKDISGRVIGRQLLIPQALQVPFIAYLQRCIDAVGLAQQVINELDDLLEAGFRGREVDFVAKMINELDIIEEDTDDLQIQLRRQLFALESELNPVDVMFLYKTIEWVGGLADLAERVGSRLELMLARV
MPYERKIINDPVFGFINIPKGLLYDIVRHPLLQRLTRIKQVGLSSVVYPGAQHTRFQHSLGAFYLMSEAITQLTSKGNFIFDSEAEAVQAAILLHDIGHGPFSHVLEDTIVQGVSHEEISLMLMERMNKEMNGQLSLAIQIFKDEYPKRFLHQLVSGQLDMDRLDYLRRDSFYTGVTEGNIGSARIIKMLDVADDRLVIESKGIYSIENFLTARRLMYWQVYLHKTSVAYERMLISTLLRAKELASQGVELFASPALHFFLYNDINHTEFHNNPDCLENFIQLDDNDIWTALKVWSNHPDKVLSTLSLGMINRNIFKVENSAEPIGEDRIKELTLQISQQLGITLSEANYFVSTPSIEKNMYDPADDSIDIIYKDGTIKNIAEASDMLNISLLSKKVKKYYLCYQRLHR
MPYFLIHNKNDNVGVAIADIKTGQEVEGIYIEDMTQGPKIKAISDIPLGHKIALKDIRQSDIVIKYGRPIGSAIKDIKVGEHVHVHNIRSNRWGKWKNQ
MQAVRLFQGYLWHPRALALDLKALLPGEVAGARLLWDEVPPPTPFFEDGTPTHTQRFYQLTLLVLTEEPPEALKPLAEEAAEALGEVLEGLPPEVGWLLLEDLRPL
MQAYIDRIGDFIQANQDWAGPITFLLTFGESMVLVGLLIPATALMLLTGGLIGAGTLSPWGVLAWGIAGAIAGDAVSYALGRWLGPGVMRRWPLNTQRSAVARARLFFYRYGFASVLIGRFLGPIRSTIPTVAGIMGMHHLRFQLANVLSAVAWLPLMLAPGYITARGLGAMDNAQHIGLAAGMGASVLIGCWLLVAVMRKRRQPARANRRP
MQCPIEDRLAIQDLMIAYAHAVDTVSDIDAVLDVFTEDAVFDLSGIGLTPQVGHAGIREFFTNVFANMSHHAHYLTNFAVTGYEGDTASMRAYVIGMGVGKDGRAVTVNGRYFFEVRRTEKGWKATRYTMDFLMPLSGTLDNAK
MQEIIIQVMNQFGYFGVAFLIMIENIFPPIPSEVILTFGGFMTTYSELGIIGMIIAATIGSVLGALILYFVGRLLSVERLEKLVSGRLGKVLRLKPEDITKAEKWFLKRGYATIFFCRFIPLIRSLISIPAGSAKMKLPSFLILTTLGTLIWNIVLVCLGAALGDNWEMIAGILDSYSSVVVVILGIIFILAILIFVKKRFFPKNKNYSSDTEK
